Test results published in patent US20190263905A1 (DINONA, published 2019).
Numbering of substitutions follows the chain as printed.

T1: CEACAM1 antigen (Sino Biological, Inc.) (UniProt P13688 35-428)
T1 construct: Bought antigen coated on the ELISA plate; construct not described; also called CEACAM1 (CD66a) antigen; CD66a
T1 sequence (looked up): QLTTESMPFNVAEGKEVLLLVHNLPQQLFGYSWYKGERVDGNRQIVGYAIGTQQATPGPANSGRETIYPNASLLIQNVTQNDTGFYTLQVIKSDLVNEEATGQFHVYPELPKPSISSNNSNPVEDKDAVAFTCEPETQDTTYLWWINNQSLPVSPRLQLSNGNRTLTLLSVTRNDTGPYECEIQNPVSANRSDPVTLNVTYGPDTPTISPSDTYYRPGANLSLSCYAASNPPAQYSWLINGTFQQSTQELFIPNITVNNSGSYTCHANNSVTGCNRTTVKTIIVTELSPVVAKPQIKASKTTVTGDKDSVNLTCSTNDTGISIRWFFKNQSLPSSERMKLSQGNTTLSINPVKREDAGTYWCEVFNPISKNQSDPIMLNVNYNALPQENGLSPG

T2: Antigen CD66c (CEACAM6; Sino Biological, Inc.) (UniProt P40199 35-320)
T2 construct: Bought antigen coated on the ELISA plate; construct not described; also called CD66c antigen; CECACAM6
T2 sequence (looked up): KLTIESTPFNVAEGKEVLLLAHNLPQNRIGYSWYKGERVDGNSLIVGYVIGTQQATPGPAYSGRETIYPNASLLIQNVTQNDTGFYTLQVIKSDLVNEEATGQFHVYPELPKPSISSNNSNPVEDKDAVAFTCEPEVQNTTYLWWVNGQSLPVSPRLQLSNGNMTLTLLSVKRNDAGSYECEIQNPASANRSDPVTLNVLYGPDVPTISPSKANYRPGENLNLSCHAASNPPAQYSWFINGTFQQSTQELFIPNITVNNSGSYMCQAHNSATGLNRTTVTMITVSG

T3: CD66c (CEACAM6) on CD66c-positive A549 non-small-cell lung cancer cells (UniProt P40199 35-320, limits assumed)
T3 construct: whole, on cells; also called CD66c antigen; NCA-90
T3 sequence (looked up): T2 sequence (looked up)

B1: recombinant humanized anti-CD66c antibody Protein ID 3058 (Vk8 + VH11) (antibody, human IgG1, V domains shown)
VH: QVQLVQSGAEVKKPGASVKISCKASGYSFTDYTMHWVKQAPGQNLEWIGLINPFGGSTSYAQKFKGRVTMTRDTSTNTAYMELSRLRSDDTAVYYCVRGDPVRHYYALAYWGQGTLVTVSS
VL: DIQMTQSPSTLSASVGDRVTITCRASENVYGTLNWYQRKPGKAPKLLIYGATNLADGMPSRFSGSGSGTEYTLTISSLQPDDFATYYCQNVLSAPYTFGGGTKLEIK
notes: also called hu 3058; #86
B2: recombinant humanized anti-CD66c antibody Protein ID 3007 (Vk7 + VH6) (antibody, human IgG1, V domains shown)
VH: QVQLVQSGAEVKKPGASMKISCKASGYSFTDYTMNWVKQAPGQNLEWIGLINPFHGGTVSNQRFKVKATLTVDVSTNTAYMELSRLRSDDTAVYYCVRGDPVRHYYALAYWGQGTLVTVSS
VL: B1 VL with R24G, M58V
notes: also called hu 3007; #43
B3: recombinant humanized anti-CD66c antibody Protein ID 3043 (Vk8 + VH6) (antibody, human IgG1, V domains shown)
VH: B2 VH
VL: B1 VL
notes: also called hu 3043; #71
B4: recombinant humanized anti-CD66c antibody Protein ID 2938 (Vk5 + VH7) (antibody, human IgG1, V domains shown)
VH: B2 VH with K38R, N44G
VL: B1 VL with R24G, N34A, M58V, T69R
notes: also called hu 2938
B5: anti-CD66c chimeric antibody 8F5 (antibody, human IgG1, V domains shown)
VH: EVQLQQSGPELVKPGASMKISCKASGYSFTDYTMNWVKQSHGKNLEWIGLINPFHGGTVSNQRFKVKATLTVDVSSNTAYMELLSLTSDDSAVYYCVRGDPVRHYYALAYWGQGTSVTVSS
VL: DIQMTQSPASLSASVGETVTITCGASENVYGTLNWYQRKQGKSPQLLIYGATNLADGMSSRFSGSGSGRQYSLKISSLHPDDVATYYCQNVLSAPYTFGGGTKLEII
notes: also called chimeric 8F5 antibody; chi 8F5

These binders were tested against T1, CEACAM1 antigen (Sino Biological, Inc.) (assay: ELISA, coated CEACAM1 100 ng/well, antibody 0.51 ng/ml).
Description: (§1) Antigen CD66c (CEACAM6; Sino Biological, Inc.) and CEACAM1 antigen (Sino Biological, Inc.) were coated on a 96-well plate at 100 ng per well and then blocked. The primary antibody was diluted serially three fold from 10 ug/ml at initial concentration and was bound at 37° C. for 1 hour, and goat anti-Human Ig-HRP conjugate (Jackson ImmunoResearch) as a secondary antibody was diluted 1:10,000 and incubated at 37° C. for 30 minutes. The washing was carried out at three times between each step, and the TMB reaction was performed, stopped with 1N H₂SO₄ solution at the same amount of TMB solution (100 ul) and then OD value was measured at 450 nm.
(§2) As a result of the experiment, the binding affinities to CD66c antigen of the five kinds of recombinant humanized antibodies selected from among 96 kinds of recombinant humanized antibodies are shown in FIG. 4a, Table 12, FIG. 4b and Table 13. FIG. 4a and Table 12 show the binding capacity of the antibodies to CECACAM6 CD66c) antigen, and FIG. 4b and Table 13 are the results for the CEACAM1 (CD66a) antigen.

Point of comparison: B3, “OD 450 nm” value 0.1 OD. Against it:
- B1 — lower, 0.04 OD
- B2 — higher, 0.11 OD
- B4 — lower, 0.05 OD
- B5 — the same, 0.1 OD

The binders below were run against T2, Antigen CD66c (CEACAM6; Sino …) (assay: ELISA, coated CEACAM6 100 ng/well, antibody 13.72 ng/ml).
Description: as §1, §2

Point of comparison: B1, “OD 450 nm” value 1.06 OD. Against it:
- B2 — higher, 1.64 OD
- B3 — higher, 1.37 OD
- B4 — higher, 1.15 OD
- B5 — higher, 1.15 OD

These binders were tested against T1, CEACAM1 antigen (Sino Biological, Inc.) (assay: ELISA, coated CEACAM1 100 ng/well, antibody 370.37 ng/ml).
Description: as §1, §2

Point of comparison: B1, “OD 450 nm” value 0.12 OD. Against it:
- B2 — higher, 0.92 OD
- B3 — higher, 0.8 OD
- B4 — higher, 0.14 OD
- B5 — higher, 1.13 OD

Each binder was assayed against T3, CD66c (CEACAM6) on CD66c-positive A549 … (assay: flow cytometry on A549 cells, relative to chimeric antibody).
Description: (§3) Each expressed 96 recombinant humanized antibody was poured and reacted in a test tube containing the same amount ([…]) of CD66c-positive A549 non-small-cell lung cancer cell line at 4° C. for 30 minutes, washed with PBS, and treated with FITC-conjugated goat anti-Human IgG (DiNona Inc, Korea) was added and incubated at 4° C. for 15 minutes. After washing with PBS, the cells were analyzed with a flow cytometer (Stratedigm, S1000EXi) and the results are shown below.
(§4) Among the 96 recombinant humanized antibody candidates, eight were firstly selected based on the degree of expression, the presence of aggregation, and the degree of cell binding (Table 9 and Table 10, FIGS. 3A to 3E).

Point of comparison: B5, “% (% gated × mean)” value 100%. Against it:
- B1 — higher, 103%
- B2 — lower, 88.8%
- B3 — higher, 105%
- B4 — lower, 96%

Each binder was assayed against T1, CEACAM1 antigen (Sino Biological, Inc.) (assay: ELISA, coated CEACAM1 100 ng/well, antibody 4.57 ng/ml).
Description: as §1, §2

Point of comparison: B4, “OD 450 nm” value 0.05 OD. Against it:
- B1 — the same, 0.05 OD
- B2 — higher, 0.27 OD
- B3 — higher, 0.27 OD
- B5 — higher, 0.28 OD

Each binder was assayed against T2, Antigen CD66c (CEACAM6; Sino …) (assay: ELISA, coated CEACAM6 100 ng/well, antibody 1.52 ng/ml).
Description: as §1, §2

Point of comparison: B4, “OD 450 nm” value 0.48 OD. Against it:
- B1 — higher, 0.53 OD
- B2 — higher, 0.79 OD
- B3 — higher, 0.7 OD
- B5 — higher, 0.53 OD

These binders were tested against T2, Antigen CD66c (CEACAM6; Sino …) (assay: ELISA, coated CEACAM6 100 ng/well, antibody 10000.00 ng/ml).
Description: as §1, §2

Point of comparison: B2, “OD 450 nm” value 3.37 OD. Against it:
- B1 — lower, 2.87 OD
- B3 — lower, 2.73 OD
- B4 — higher, 3.43 OD
- B5 — lower, 3.17 OD

What follows are binders tested against T3, CD66c (CEACAM6) on CD66c-positive A549 … (assay: flow cytometry on CD66c-positive A549 cells, mean fluorescence).
Description: as §3, §4

Point of comparison: B3, Mean 686. Against it:
- B1 — lower, 645
- B2 — lower, 565
- B4 — lower, 611
- B5 — lower, 619

The binders below were run against T1, CEACAM1 antigen (Sino Biological, Inc.) (assay: ELISA, coated CEACAM1 100 ng/well, antibody 41.15 ng/ml).
Description: as §1, §2

Point of comparison: B3, “OD 450 nm” value 0.61 OD. Against it:
- B1 — lower, 0.07 OD
- B2 — higher, 0.66 OD
- B4 — lower, 0.07 OD
- B5 — higher, 0.82 OD

Each binder was assayed against T2, Antigen CD66c (CEACAM6; Sino …) (assay: ELISA, coated CEACAM6 100 ng/well, antibody 123.46 ng/ml).
Description: as §1, §2

Point of comparison: B2, “OD 450 nm” value 2.9 OD. Against it:
- B1 — lower, 2.22 OD
- B3 — lower, 2.29 OD
- B4 — lower, 2.56 OD
- B5 — lower, 2.83 OD

The binders below were run against T2, Antigen CD66c (CEACAM6; Sino …) (assay: ELISA, coated CEACAM6 100 ng/well, antibody 41.15 ng/ml).
Description: as §1, §2

Point of comparison: B1, “OD 450 nm” value 1.38 OD. Against it:
- B2 — higher, 2.17 OD
- B3 — higher, 1.73 OD
- B4 — higher, 1.72 OD
- B5 — higher, 2.02 OD

The binders below were run against T1, CEACAM1 antigen (Sino Biological, Inc.) (assay: ELISA, coated CEACAM1 100 ng/well, antibody 1111.11 ng/ml).
Description: as §1, §2

Point of comparison: B1, “OD 450 nm” value 0.19 OD. Against it:
- B2 — higher, 1.06 OD
- B3 — higher, 1.17 OD
- B4 — higher, 0.21 OD
- B5 — higher, 1.21 OD

Each binder was assayed against T1, CEACAM1 antigen (Sino Biological, Inc.) (assay: ELISA, coated CEACAM1 100 ng/well, antibody 0.17 ng/ml).
Description: as §1, §2

Point of comparison: B3, “OD 450 nm” value 0.08 OD. Against it:
- B1 — lower, 0.04 OD
- B2 — higher, 0.09 OD
- B4 — lower, 0.04 OD
- B5 — the same, 0.08 OD

What follows are binders tested against T2, Antigen CD66c (CEACAM6; Sino …) (assay: ELISA, coated CEACAM6 100 ng/well, antibody 1111.11 ng/ml).
Description: as §1, §2

Point of comparison: B4, “OD 450 nm” value 3.16 OD. Against it:
- B1 — higher, 3.19 OD
- B2 — higher, 3.23 OD
- B3 — lower, 2.74 OD
- B5 — higher, 3.3 OD
